{
  "source": "patent US20230203142A1",
  "about": "“TREATMENT OF METABOLIC DISORDERS THROUGH THE TARGETING OF A NOVEL CIRCULATING HORMONE COMPLEX” (The President and Fellows of Harvard College, priority 2020, published 2023)",
  "molecules": {"B1": {"name": "FABP4: human recombinant FABP4 (produced in-house) (protein)", "chain": "CDAFVGTWKLVSSENFDDYMKEVGVGFATRKVAGMAKPNMIISVNGDVITIKSESTFKNTEISFILGQEFDEVTADDRKVKSTITLDGGVLVHVQKWDGKSTTIKRKREDDKLVVECVMKGVTSTRVYERA"}, "B2": {"name": "ADK: recombinant human adenosine kinase (Novus Biologicals or R&D Systems) (protein, listed as Homo sapiens)", "chain": "MAAAEEEPKPKKLKVEAPQALRENILFGMGNPLLDISAVVDKDFLDKYSLKPNDQILAEDKHKELFDELVKKFKVEYHAGGSTQNSIKVAQWMIQQPHKAATFFGCIGIDKFGEILKRKAAEAHVDAHYYEQNEQPTGTCAACITGDNRSLIANLAAANCYKKEKHLDLEKNWMLVEKARVCYIAGFFLTVSPESVLKVAHHASENNRIFTLNLSAPFISQFYKESLMKVMPYVDILFGNETEAATFAREQGFETKDIKEIAKKTQALPKMNSKRQRIVIFTQGRDDTIMATESEVTAFAVLDQDQKEIIDTNGAGDAFVGGFLSQLVSDKPLTECIRAGHYAASIIIRRTGCTFPEKPDFH"}},
  "key": {"primary mouse islets": {"test_system": "primary mouse islets", "experiment": "Glucose-stimulated insulin secretion (GSIS), mouse islets", "assay_type": "cell-based", "description": "Primary islet isolation from mice was performed as previously described (Batchuluun et al., 2018; Prentice et al., 2014) and GSIS was assessed following acute treatment with NDPK-ADK in the presence or absence of FABP4. Insulin secretion assays were performed as previously described (Prentice et al., 2014). For primary islets, 20 islets were hand-picked into 1.5 ml tubes, washed twice with Krebs Ringer Buffer (KRB) without glucose, and pre-incubated in 500 μl low glucose (LG; 2.8 mM) KRB for 1 hour at 37° C. KRB was then removed and 250 μl of fresh LG KRB added. Islets were incubated for 20 minutes at 37° C. Supernatant was collected and 250 μl high glucose (HG; 16.7 mM) KRB added. Islets were incubated for 20 minutes at 37° C. In conditions where KCl was used, HG KRB was collected, and 250 μl KC1 (16.7 mM glucose, 30 mM KCl) KRB added. Islets were incubated for 20 minutes at 37° C., and supernatant collected. Following the stimulation protocol, cells were lysed in 100 μl acid ethanol (70% ethanol, 1% HCl in water) and stored at 4° C. overnight. Samples were evaporated using a SpeedVac until dried, and resuspended in 60 μl ultrapure water. DNA was quantified by Nanodrop (ThermoFisher, USA). Insulin from supernatant was quantified using insulin HTRF (Insulin Ultrasensitive Assay kit 62IN2PEH; Cisbio, USA)."}, "recombinant ADK": {"molecular_target": "T1, recombinant ADK (Homo sapiens, UniProt P55263)", "T1 construct": "purchased Novus Biologicals or R&D Systems NBP1-44382 or 8024-AK-025", "experiment": "Recombinant kinase activity assay, ADK (Kinase-Glo)", "assay_type": "biochemical", "details": "recombinant ADK plus the added component", "description": "(§1) An on-bead kinase assay was developed to measure the activity of endogenous NDPK and ADK pulled down from serum using a-Ab or c-Ab conjugated beads. Both NDPK and ADK are bi-directional kinases that will produce ATP or ADP depending on the substrates provided (FIGS. 4B-C). Kinase activity assays were performed in 384-well plates in reaction buffer (PBS with 0.1% BSA, 0.01% F-127, 5 mM MgCl2). Experiments with recombinant proteins were performed at final concentrations of 40 μg/ml for ADK and FABP4, and 20 ug/ml for NDPK, and a reaction volume of 10 μl. Antibodies were used at a final concentration of 80 ug/ml. Substrates were added in equimolar ratios depending on the kinase being assayed and the direction of the reaction in serial dose responses, with the highest concentration of 5 μM. Proteins and substrates were incubated for 1 hr at room temperature, and ADP and ATP production were monitored using ADP-Glo and Kinase-Glo kits, respectively, according the manufacturer instructions (V6930 and V6711 Promega, USA). Luminescence was quantified using a SpectraMax Paradigm plate reader 30 min after the addition of substrate. Consistent with the MS results, ADK activity, as measured by generation of ATP, was specifically observed in samples pulled down with a-Ab but not c-Ab (FIG. 5A). […] To test this possibility, the ATP and ADP generating activity of recombinant ADK was assessed in the presence of the proposed complex components."}, "recombinant NDPK": {"molecular_target": "T2, recombinant NDPK (Homo sapiens, UniProt P15531)", "T2 construct": "purchased Acro Biosystems NM1-H5147", "T2 sequence (P15531 whole entry)": "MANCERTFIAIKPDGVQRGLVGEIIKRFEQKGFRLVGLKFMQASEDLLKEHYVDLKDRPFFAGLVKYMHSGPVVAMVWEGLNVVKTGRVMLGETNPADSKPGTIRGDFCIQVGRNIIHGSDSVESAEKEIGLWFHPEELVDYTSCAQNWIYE", "experiment": "Recombinant kinase activity assay, NDPK (ADP-Glo/Kinase-Glo)", "assay_type": "biochemical", "details": "recombinant NDPK plus the added component", "description": "as §1"}, "WT NOD mice": {"test_system": "WT NOD mice", "experiment": "Acute FABP4 administration", "assay_type": "in vivo, mouse", "details": "20 minutes post-injection, vs vehicle-injected controls", "description": "(§2) Given the essential role for appropriate beta cell function and insulin secretion in the pathogenesis of diabetes, the pancreata of FABP4 deficient (FABP4^−/−) mice were examined for beta cell mass and insulin content. Animal care and experimental procedures were performed with approval from animal care committees of Harvard University. All mice were housed on a 12-hour light/dark cycle with ad libitum access to chow (PicoLab 5058 LabDiet) and water. FABP4−/− and WT mice were littermates obtained from heterozygous breeding. High fat diet (HFD) fed mice were provided ad libitum access to HFD (60% kcal from fat; Research Diets Inc., D12492i) for 14 weeks beginning at 4 weeks of age. Pancreata and isolated islets were obtained from 7-8-week-old male mice. Blood was collected every other week for 6 hour fasting plasma insulin and FABP4 levels. For acute FABP4 treatment, 10 μg of human recombinant FABP4 (produced in-house) or sterile PBS was injected intraperitoneally. Blood was collected from the tail vein at 0, 10, 20, 30, 60, 120, 240- and 360-minutes post injection for measurement of blood glucose, plasma insulin, and FABP4 levels."}, "WT mice": {"test_system": "WT mice", "experiment": "Acute FABP4 administration", "assay_type": "in vivo, mouse", "details": "20 minutes post-injection, vs vehicle-injected controls", "description": "as §2"}, "Human NDPK-A": {"molecular_target": "T3, Human NDPK-A (Homo sapiens, UniProt P15531)", "T3 construct": "purchased Acro Biosystems NM1-H5147", "T3 sequence (P15531 whole entry)": "as above", "experiment": "Microscale Thermophoresis (MST) one-to-one protein interaction with NDPK", "details": "recombinant proteins, binding to NDPK", "description": "Additionally, one-to-one recombinant protein interaction assays were performed using Microscale Thermophoresis (MST) to independently validate the interactions between each of the proposed complex components. MST is a technology for the interaction analysis of biomolecules. MST is the directed movement of particles in a microscopic temperature gradient. Any change of the hydration shell of biomolecules due to changes in their structure/conformation results in a relative change of the movement along the temperature gradient and is used to determine binding affinities. MST allows measurement of interactions directly in solution without the need of immobilization to a surface (immobilization-free technology).\nTo perform this technique, proteins were desalted and buffer exchanged into PBS prior to labeling. […] Experiments were conducted independently with each of NDPK and ADK labeled with each kit (i.e., experiments were performed with lysine-labeled, cysteine-labeled, and His-labeled versions of each protein to confirm the site of labeling was not influencing detected interaction). […] Concentration of labeled proteins ranged from 12 nM to 20 nM, as determined by MST quantification to obtain a fluorescence intensity of ˜350 from each capillary tube. […]"}},
  "data": [
    {"molecule": "B1", "values": [
      {"measurement": "GSIS", "setting": "primary mouse islets; primary / WT mouse islets", "result": "no effect"},
      {"measurement": "NDPK-ADK-enhanced GSIS response", "setting": "primary mouse islets; primary mouse islets, added to NDPK-ADK", "result": "significantly blunted"},
      {"measurement": "ADK activity to generate ATP", "setting": "recombinant ADK", "result": "significantly increased"},
      {"measurement": "activity of NDPK to generate ADP", "setting": "recombinant NDPK", "result": "not further influenced"},
      {"measurement": "capacity of NDPK to produce ATP", "setting": "recombinant NDPK", "result": "no effect"},
      {"measurement": "plasma insulin", "setting": "WT NOD mice", "result": "significant reduction"},
      {"measurement": "blood glucose levels", "setting": "WT mice", "result": "significantly increased"}
    ]},
    {"molecule": "B2", "values": [
      {"measurement": "Kd", "setting": "Human NDPK-A", "result": "~1.8", "unit": "nM"},
      {"measurement": "activity of NDPK to generate ADP", "setting": "recombinant NDPK", "result": "significantly reduced"},
      {"measurement": "capacity of NDPK to produce ATP", "setting": "recombinant NDPK", "result": "no effect"}
    ]}
  ]
}
